Experimental data taken from patent US20050064384A1, “Recruitment of mst1 or mst2 protein kinase to induce apoptosis in eukaryotic cells” (priority 2001, published 2005).

Target: FLAG-tagged wild type (wt) MST1 (mouse) (UniProt Q9JI11)
Assay: cell-based or functional assay

Chain of FLAG-tagged wild type (wt) MST1 (mouse) (Q9JI11 other isoform, or with tags, fused parts or gaps limits assumed): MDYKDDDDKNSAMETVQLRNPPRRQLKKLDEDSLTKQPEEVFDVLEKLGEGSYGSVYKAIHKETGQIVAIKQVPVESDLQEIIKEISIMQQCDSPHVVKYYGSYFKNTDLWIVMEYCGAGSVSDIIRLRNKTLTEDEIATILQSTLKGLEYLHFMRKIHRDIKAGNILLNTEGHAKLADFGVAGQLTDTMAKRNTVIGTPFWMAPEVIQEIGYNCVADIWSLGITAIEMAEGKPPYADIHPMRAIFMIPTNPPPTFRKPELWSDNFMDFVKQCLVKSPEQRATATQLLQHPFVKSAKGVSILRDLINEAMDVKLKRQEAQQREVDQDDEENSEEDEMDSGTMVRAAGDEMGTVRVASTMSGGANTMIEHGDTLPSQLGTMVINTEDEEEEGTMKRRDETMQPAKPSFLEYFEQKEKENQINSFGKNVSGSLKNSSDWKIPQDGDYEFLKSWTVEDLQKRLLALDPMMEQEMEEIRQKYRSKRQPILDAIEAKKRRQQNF

fraction of annexin V-stained NIH3T3 cells: 50%
Sequence: NORECAAX (NORE fused to the Ki-Ras4B membrane-association CAAX segment) (from UniProt Q5EBH1 1-413)
